Assay results as given in US20250369982A1 (INCENDIATHERAPEUTICS, published 2025).
Like-named read-outs stand apart in the source and are kept apart here. Blank lines part the entries; values can stand above or below the binder they belong to.

Key:
[1] = molecular target: T1, DDR1 on T47D breast cancer cells (human, UniProt Q08345 19-913); assay: cell-based or functional assay
[2] = molecular target: DDR1 overexpressed on HEK293 cells (Homo sapiens (Human), UniProt Q08345 19-913); assay: cell-based or functional assay
[3] = molecular target: T1, DDR1 on T47D breast cancer cells; assay: cell-based or functional assay; remark: listed apart in the source
[4] = molecular target: T2, mouse DDR1 extracellular domain (mouse, UniProt Q03146 22-415); assay: SPR
T2 construct: extracellular domain
T2 sequence (looked up): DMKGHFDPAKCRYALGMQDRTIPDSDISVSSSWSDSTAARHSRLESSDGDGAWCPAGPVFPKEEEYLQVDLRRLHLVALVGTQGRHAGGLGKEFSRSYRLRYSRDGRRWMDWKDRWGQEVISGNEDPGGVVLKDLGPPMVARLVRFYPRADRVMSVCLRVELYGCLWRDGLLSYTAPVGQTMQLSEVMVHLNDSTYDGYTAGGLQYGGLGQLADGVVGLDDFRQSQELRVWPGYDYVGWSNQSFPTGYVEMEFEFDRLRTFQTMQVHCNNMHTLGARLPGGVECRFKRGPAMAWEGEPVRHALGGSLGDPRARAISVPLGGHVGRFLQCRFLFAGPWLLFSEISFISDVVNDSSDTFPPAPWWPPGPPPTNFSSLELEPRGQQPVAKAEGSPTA

[5] = molecular target: T1, DDR1 on T47D breast cancer cells; assay: cell-based or functional assay; remark: listed apart in the source

T1 sequence (Q08345 19-913 limits assumed, stated change not applied): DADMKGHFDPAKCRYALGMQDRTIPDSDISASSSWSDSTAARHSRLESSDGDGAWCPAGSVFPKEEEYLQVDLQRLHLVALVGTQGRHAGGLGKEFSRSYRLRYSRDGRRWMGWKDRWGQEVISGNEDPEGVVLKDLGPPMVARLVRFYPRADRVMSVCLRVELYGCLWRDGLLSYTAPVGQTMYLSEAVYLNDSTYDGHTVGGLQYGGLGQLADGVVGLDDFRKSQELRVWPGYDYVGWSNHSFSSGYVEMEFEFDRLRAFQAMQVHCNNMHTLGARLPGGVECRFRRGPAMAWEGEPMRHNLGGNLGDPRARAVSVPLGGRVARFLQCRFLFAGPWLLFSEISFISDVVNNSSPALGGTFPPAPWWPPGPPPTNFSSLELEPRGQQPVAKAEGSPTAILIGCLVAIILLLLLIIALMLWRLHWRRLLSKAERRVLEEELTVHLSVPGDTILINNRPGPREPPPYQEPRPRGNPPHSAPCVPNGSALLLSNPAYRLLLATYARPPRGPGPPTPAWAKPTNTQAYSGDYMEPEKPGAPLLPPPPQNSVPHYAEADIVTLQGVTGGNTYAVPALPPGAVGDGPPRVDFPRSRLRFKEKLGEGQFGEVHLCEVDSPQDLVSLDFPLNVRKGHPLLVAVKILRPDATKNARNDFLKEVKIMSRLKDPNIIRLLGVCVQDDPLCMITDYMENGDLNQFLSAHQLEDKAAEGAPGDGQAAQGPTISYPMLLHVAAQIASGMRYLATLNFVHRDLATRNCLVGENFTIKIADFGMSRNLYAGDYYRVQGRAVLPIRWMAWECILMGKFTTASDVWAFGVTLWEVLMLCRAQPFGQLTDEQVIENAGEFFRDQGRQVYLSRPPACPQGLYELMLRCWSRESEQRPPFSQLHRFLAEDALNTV
Sequence of DDR1 overexpressed on HEK293 cells (Q08345 19-913 limits assumed): as the sequence (Q08345 19-913 limits assumed, stated change not applied) above

IC50 for inhibiting Collagen I-induced phosphorylation of DDR1 in T47D cells [1]: 0.05 to 0.06 mg/L
IC50 for 9H1-WT inhibition of DDR1 OE cell adhesion to collagen I-coated plates [2]: ~0.065 mg/L
IC50, inhibition of human collagen I (50 µg/ml)-induced DDR1 phosphorylation in T47D cells (pDDR1 normalised with vinculin), single experiment; unit taken from the axis [9H1] (µg/ml) [3]: 0.09 µg/ml
Kd [4]: 0.0176 µM
IC50, inhibition of human collagen I (50 µg/ml)-induced DDR1 phosphorylation in T47D cells (pDDR1 normalised with vinculin), single experiment; unit taken from the axis [9H1] (µg/ml) [5]: 0.05 µg/ml
B1: mAb #9H1 WT IgG1 Fc (antibody)
heavy: not shown
light: DIQMTQSPSSVSASVGDRVTITCQASQSIGSVLAWYQQKPGKAPKLLISGVFDLASGVPSRFSGSGSGTDFTLTISSLQPEDFATYYCQYIPYGSSPFGGGTKVEIKRTVAAPSVFIFPPSDEQLKSGTASVVCLLNNFYPREAKVQWKVDNALQSGNSQESVTEQDSKDSTYSLSSTLTLSKADYEKHKVYACEVTHQGLSSPVTKSFNRGEC
notes: also called humanized mAb #9H1 with wt IgG1Fc

Kd [4]: 0.019 µM
B2: mAb #9H1 inert IgG1 Fc (antibody)
heavy: QVQLVESGGRVVQPGRSLRLSCTASGFSLNRYYMLWVRQAPGKGLEWIGTISYGDTTYYASWAKGRFTISRDNSKNTLYLQMNSLRAEDTAVYYCARADTGDNGYLGLQLWGQGTLVTVSSASTKGPSVFPLAPSSKSTSGGTAALGCLVKDYFPEPVTVSWNSGALTSGVHTFPAVLQSSGLYSLSSVVTVPSSSLGTQTYICNVNHKPSNTKVDKRVEPKSCDKTHTCPPCPAPEAEGAPSVFLFPPKPKDTLMISRTPEVTCVVVDVSHEDPEVKFNWYVDGVEVHNAKTKPREEQYNSTYRVVSVLTVLHQDWLNGKEYKCKVSNKALPSSIEKTISKAKGQPREPQVYTLPPSREEMTKNQVSLTCLVKGFYPSDIAVEWESNGQPENNYKTTPPVLDSDGSFFLYSKLTVDKSRWQQGNVFSCSVMHEALHNHYTQKSLSLSPGK
light: B1 light
notes: No sentence equates the two names; also called humanized mAb #9H1 with inert IgG1Fc; humanized DDR1-9 1 inert IgG1 Fc

Kd [4]: 0.00101 µM
koff [4]: 0.00106 s⁻¹
kon [4]: 1.05e+06 M⁻¹ s⁻¹
B3: mAb #33 inert IgG1 Fc (antibody, V domains shown)
VH: QSVEESGGRLVTPGGSLTLTCTVSGFSLSSYDMSWVRQAPGKGLEWIGISWNSGFVDYASWAKGRFSISKTSTTVDLKITSPTTEDTATYFCARLGADDIYYFNLWGPGTLVTISS
VL: ELVMTQTPASVEAAVGGTVTIKCQASETISSRLAWYQQKPGQPPKLLIYQASKLPSGVPSRFKGTGSGTEYTLTISDLECADAATYYCQGCYYGGGSFYDSAFGGGTEVVVKR
notes: also called chimeric rabbit/human mAb #33 with inert IgG1 Fc; chimeric mAb #33
